According to patent CN113461812A (BEIJING LUFEI BIOTECHNOLOGY CO LTD, dated 2021):

Columns and labels:
新型冠状病毒(假病毒) S蛋白 = 新型冠状病毒(假病毒) S蛋白 (SARS-CoV-2, UniProt P0DTC2 14-1273); experiment: cell-based or functional assay
新型冠状病毒RBD蛋白 (野生型) = target: T1, 新型冠状病毒RBD蛋白 (野生型) (SARS-CoV-2, UniProt P0DTC2 319-541); experiment: SPR (Biacore), 1:1 binding fit
T1 construct: domain: RBD; also called WT; 新冠病毒RBD蛋白野生型

B1: 人源化新冠病毒中和性抗体nCoV-00D (antibody, V domains shown)
VH: QVQLQQSGAELVKPGASVKLSCKTSGYTFTRYYIYWVKQRPGQGLEWIGEINPNNGGTNFNEKFKSKATLTVDKSSNTAYMQLSSLTSEDSAVYYCTIFITTVIARDYWGQGTLVTVSA
VL: DIVLTQSPASLAVSLGQRATISCRASESVEYSGTTLMQWFQQKPGQPPKLLIYAASNVESGVPARFSGSGSGTDFSLNIHPVEEDDVAMYFCHQSREVPWTFGGGTKLEIKR
notes: also called nCoV-00D抗体
B1 was tested, and the “IC50, 假病毒中和试验 (Huh7细胞, 荧光素酶值)” value (新型冠状病毒(假病毒) S蛋白) was roughly 9 ng/mL, the Kd (新型冠状病毒RBD蛋白 (野生型)) was 532 pM and the koff (新型冠状病毒RBD蛋白 (野生型)) was 0.000133 s⁻¹. For the same binder, the kon (新型冠状病毒RBD蛋白 (野生型)) was 251000 M⁻¹ s⁻¹.
